± gives the standard error. For some of these results: This sample holds only a part of the variants without activity.
B1: glmS ribozyme (parent)
chain: AUAAAAGCGCCAGAACUACAGAAAUGUAGUUGACGAGGAGGAGGUUUAUCGAAUUUUCGGCGGAUGCCUCCAAA

What was measured:
Settings in all cases: with glucosamine-6-phosphate
glucosamine-6-phosphate [1] = variants of: B1; assay: kcat; higher = faster cleavage; RNA array
Summary of the method: (§1)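 Weighted Michaelis–Menten fits across concentrations supplied kcat and KM, based on kobs from one- or two-exponential decay fits to normalised per-tile medians. The data came from barcoded ribozyme variants transcribed in situ by E. coli RNA polymerase on sequenced MiSeq chips and tracked at 37 °C by a hybridised Cy3 probe. Glucosamine-6-phosphate (40 μM to 10 mM) in HEPES/KCl/Mg(OAc)2 buffer was flowed in.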

glucosamine-6-phosphate [2] = variants of: B1; assay: KM; higher = weaker cofactor use; RNA array
Summary of the method: as §1

glucosamine-6-phosphate [3] = variants of: B1; assay: self-cleavage kobs at 640 uM GlcN6P; higher = faster cleavage; RNA array
Summary of the method: as §1

glucosamine-6-phosphate [4] = variants of: B1; assay: self-cleavage kobs at 2500 uM GlcN6P; higher = faster cleavage; RNA array
Summary of the method: as §1

glucosamine-6-phosphate [5] = variants of: B1; assay: self-cleavage kobs at 10000 uM GlcN6P; higher = faster cleavage; RNA array
Summary of the method: as §1

glucosamine-6-phosphate [6] = variants of: B1; assay: self-cleavage kobs at 40 uM GlcN6P; higher = faster cleavage; RNA array
Summary of the method: as §1

glucosamine-6-phosphate [7] = variants of: B1; assay: self-cleavage kobs at 160 uM GlcN6P; higher = faster cleavage; RNA array
Summary of the method: as §1

Variant	kcat (glucosamine-6-phosphate [1])	KM (glucosamine-6-phosphate [2])	self-cleavage kobs at 640 uM GlcN6P (glucosamine-6-phosphate [3])	self-cleavage kobs at 2500 uM GlcN6P (glucosamine-6-phosphate [4])	self-cleavage kobs at 10000 uM GlcN6P (glucosamine-6-phosphate [5])	self-cleavage kobs at 40 uM GlcN6P (glucosamine-6-phosphate [6])	self-cleavage kobs at 160 uM GlcN6P (glucosamine-6-phosphate [7])
U47C U56C	0.00115 ± 0.00017 s⁻¹	1940 ± 650 µM	0.000323 ± 7.3e-05 s⁻¹	0.00061 ± 0.00012 s⁻¹	0.000972 ± 0.00016 s⁻¹		
U45G U65C	9.08e-05 ± 1.1e-05 s⁻¹	3060 ± 1100 µM		4.24e-05 ± 1.4e-05 s⁻¹	6.91e-05 ± 1.3e-05 s⁻¹		
A64C C68U	< 1e-05 s⁻¹				< 1e-05 s⁻¹	< 1e-05 s⁻¹	< 1e-05 s⁻¹
G29A G66C	6.73e-05 ± 1.1e-05 s⁻¹	1940 ± 930 µM		4.16e-05 ± 1.1e-05 s⁻¹	5.41e-05 ± 1.4e-05 s⁻¹		
U57G U69A	3.67e-05 ± 1.4e-05 s⁻¹		5.54e-05 ± 2.1e-05 s⁻¹				
G41A U65A	0.000213 ± 2.1e-05 s⁻¹	1040 ± 220 µM	7.98e-05 ± 1.2e-05 s⁻¹	0.000171 ± 3e-05 s⁻¹	0.000182 ± 3e-05 s⁻¹		
U56C C70A	1.36e-05 ± 2.7e-06 s⁻¹						
U56C C70U	0.000177 ± 5e-06 s⁻¹	1660 ± 120 µM	4.77e-05 ± 6.2e-06 s⁻¹	0.000111 ± 9.3e-06 s⁻¹	0.00015 ± 1e-05 s⁻¹		
G32A G59A C68U	1.04e-05 ± 2.4e-06 s⁻¹						
C11U U45C	9.44e-05 ± 1.8e-05 s⁻¹			6.5e-05 ± 1.3e-05 s⁻¹	7.59e-05 ± 1e-05 s⁻¹		
G13U A42C U69G	0.00178 ± 0.00081 s⁻¹		0.00028 ± 5.9e-05 s⁻¹	0.000852 ± 0.00026 s⁻¹	0.00141 ± 0.00021 s⁻¹	8.5e-05 ± 2.1e-05 s⁻¹	
G37U C71G	1.72e-05 ± 4.2e-06 s⁻¹						
A36C U49G	0.00221 ± 0.00064 s⁻¹		0.000416 ± 0.00011 s⁻¹	0.000851 ± 0.00021 s⁻¹	0.00186 ± 0.00031 s⁻¹	6.21e-05 ± 2.5e-05 s⁻¹	
A33U C58A	< 1e-05 s⁻¹		< 1e-05 s⁻¹				< 1e-05 s⁻¹
A12U U46G	0.023 ± 0.007 s⁻¹	2700 ± 1100 µM	0.00656 ± 0.0018 s⁻¹	0.0119 ± 0.0035 s⁻¹	0.0167 ± 0.0047 s⁻¹	0.000297 ± 7.2e-05 s⁻¹	
C16U U45G	0.00669 ± 0.00062 s⁻¹	2070 ± 280 µM	0.00156 ± 0.00026 s⁻¹	0.00321 ± 0.00074 s⁻¹	0.00593 ± 0.001 s⁻¹	0.000135 ± 2.4e-05 s⁻¹	0.000468 ± 0.00016 s⁻¹
A15G U69A	0.000201 ± 4.3e-05 s⁻¹		0.000137 ± 1.8e-05 s⁻¹	0.000264 ± 5.2e-05 s⁻¹	0.000312 ± 4.6e-05 s⁻¹	6.42e-05 ± 9.6e-06 s⁻¹	0.000145 ± 1.7e-05 s⁻¹
G51A C67A	1.27e-05 ± 2.8e-06 s⁻¹						
U69A C71U	7.42e-05 ± 1.9e-05 s⁻¹		9.28e-05 ± 1.6e-05 s⁻¹	8.39e-05 ± 1.6e-05 s⁻¹	4.27e-05 ± 1.7e-05 s⁻¹		3.69e-05 ± 1.3e-05 s⁻¹

Source: the supplement of paper PMC7125110
